Experimental data published in article PMC3406077 (2012).

B1: wild-type full-length (C24-P237) pallilysin [Treponema pallidum subsp. pallidum (Nichols strain)] / plasminogen-depleted human fibrinogen [human] (parent complex)
chain 1: CFQHGHVPPRRIPPHDTFGALPTAALPSNARDTAAHPSDTADNTSGSSTTTDPRSHGNAPPAPVGGAAQTHTQPPVQTAMRIALWNRATHGEQGALQHLLAGLWIQTEISPNSGDIHPLLFFDREHAEITFSRASVQEIFLVDSAHTHRKTVSFLTRNTAISSIRRRLEVTFESHEVIHVRAVEDVARLKIGSTSMWDGQYTRYHAGPASAPSP
chain 2: ADSGEGDFLAEGGGVRGPRVVERHQSACKDSDWPFCSDEDWNYKCPSGCRMKGLIDEVNQDFTNRINKLKNSLFEYQKNNKDSHSLTTNIMEILRGDFSSANNRDNTYNRVSEDLRSRIEVLKRKVIEKVQHIQLLQKNVRAQLVDMKRLEVDIDIKIRSCRGSCSRALAREVDLKDYEDQQKQLEQVIAKDLLPSRDRQHLPLIKMKPVPDLVPGNFKSQLQKVPPEWKALTDMPQMRMELERPGGNEITRGGSTSYGTGSETESPRNPSSAGSWNSGSSGPGSTGNRNPGSSGTGGTATWKPGSSGPGSTGSWNSGSSGTGSTGNQNPGSPRPGSTGTWNPGSSERGSAGHWTSESSVSGSTGQWHSESGSFRPDSPGSGNARPNNPDWGTFEEVSGNVSPGTRREYHTEKLVTSKGDKELRTGKEKVTSGSTTTTRRSCSKTVTKTVIGPDGHKEVTKEVVTSEDGSDCPEAMDLGTLSGIGTLDGFRHRHPDEAAFFDTASTGKTFPGFFSPMLGEFVSETESRGSESGIFTNTKESSSHHPGIAEFPSRGKSSSYSKQFTSSTSYNRGDSTFESKSYKMADEAGSEADHEGTHSTKRGHAKSRPVRGIHTSPLGKPSLSP
chain 3: QGVNDNEEGFFSARGHRPLDKKREEAPSLRPAPPPISGGGYRARPAKAAATQKKVERKAPDAGGCLHADPDLGVLCPTGCQLQEALLQQERPIRNSVDELNNNVEAVSQTSSSSFQYMYLLKDLWQKRQKQVKDNENVVNEYSSELEKHQLYIDETVNSNIPTNLRVLRSILENLRSKIQKLESDVSAQMEYCRTPCTVSCNIPVVSGKECEEIIRKGGETSEMYLIQPDSSVKPYRVYCDMNTENGGWTVIQNRQDGSVDFGRKWDPYKQGFGNVATNTDGKNYCGLPGEYWLGNDKISQLTRMGPTELLIEMEDWKGDKVKAHYGGFTVQNEANKYQISVNKYRGTAGNALMDGASQLMGENRTMTIHNGMFFSTYDRDNDGWLTSDPRKQCSKEDGGGWWYNRCHAANPNGRYYWGGQYTWDMAKHGTDDGVVWMNWKGSWYSMRKMSMKIRPFFPQQ
chain 4: YVATRDNCCILDERFGSYCPTTCGIADFLSTYQTKVDKDLQSLEDILHQVENKTSEVKQLIKAIQLTYNPDESSKPNMIDAATLKSRKMLEEIMKYEASILTHDSSIRYLQEIYNSNNQKIVNLKEKVAQLEAQCQEPCKDTVQIHDITGKDCQDIANKGAKQSGLYFIKPLKANQQFLVYCEIDGSGNGWTVFQKRLDGSVDFKKNWIQYKEGFGHLSPTGTTEFWLGNEKIHLISTQSAIPYALRVELEDWNGRTSTADYAMFKVGPEADKYRLTYAYFAGGDAGDAFDGFDFGDDPSDKFFTSHNGMQFSTWDNDNDKFEGNCAEQDGSGWWMNKCHAGHLNGVYYQGGTYSKASTPNGYDNGIIWATWKTRWYSMKKTTMKIIPFNRLTIGEGQQHHLGGAKQAGDV

Variants of: B1
Assay: ELISA; 20 µg protein per well; fibrinogen 0.5 µg per well; parent: 3.2; read off a plot

First: chain 1 CFQHGHVPPRRIPPHDTFGALPTAALPSNARDTAAHPSDTADNTSGSSTTTDPRSHGNAPPAPVGGAAQTHTQPPVQTAMRIALWNRATHGEQGALQHLLAGLWIQTEISPNSGDIHPLLFFDREHAEITFSRASVQEIFLVDSAHTHRKTVSFLTRNTAISSIRRRLEVTFESHEVIAVRAVEDVARLKIGSTSMWDGQYTRYHAGPASAPSP [chain 1 H179A]
Second: chain 1 CFQHGHVPPRRIPPHDTFGALPTAALPSNARDTAAHPSDTADNTSGSSTTTDPRSHGNAPPAPVGGAAQTHTQPPVQTAMRIALWNRATHGEQGALQHLLAGLWIQTEISPNSGDIHPLLFFDREHAEITFSRASVQEIFLVDSAHTHRKTVSFLTRNTAISSIRRRLEVTFESHAVIHVRAVEDVARLKIGSTSMWDGQYTRYHAGPASAPSP [chain 1 E176A]
The response of the first is lower: ~3.1 O.D. (492 nm) for the first, ~3.5 O.D. (492 nm) for the second.

In the case of chain 1 CFQHGHVPPRRIPPHDTFGALPTAALPSNARDTAAHPSDTADNTSGSSTTTDPRSHGNAPPAPVGGAAQTHTQPPVQTAMRIALWNRATHGEQGALQHLLAGLWIQTEISPNSGDIHPLLFFDREHAEITFSRASVQEIFLVDSAHTHRKTVSFLTRNTAISSIRRRLEVTFESAEVIHVRAVEDVARLKIGSTSMWDGQYTRYHAGPASAPSP [chain 1 H175A], the response is reported as ~3.5 O.D. (492 nm).
